The values that follow come from patent US6602687B1, “DNA encoding human ciliary neurotrophic factor and method for producing the protein encoded thereby” (Regeneron Pharmaceuticals, Inc., priority 1989, dated 2003).

This experiment concerns AchE-containing ventral spinal cord neurons. The experiment can be described thus: Count of AchE-containing neurons in ventral spinal cord cultures. The settings on record: CNTF 10 ng/ml at plating; 7 days. It is filed as cell-based, rat. As for the experimental part:
Sprague-Dawley rats (HSD or Zivic-Miller) were used for all experiments. Pregnant rats (E14) were sacrificed as described in 10.1.1.
Spinal cords were removed aseptically from rat embryos as described in 10.1.2. The cord tissues were minced into small pieces and incubated in 0.1% trypsin (GIBCO) and 0.01% deoxyribonuclease type 1 (Sigma) at 37° C. for 20 minutes. Trypsin solution was then removed, rinsed and replaced with medium consisting of 45% Eagle's minimum essential medium (MEM), 45% Ham's nutrient mixture F12 (F12), 5% fetal calf serum (GIBCO), 5% horse serum (GIBCO) glutamine (2 mM), penicillin G (0.5 U/ml), and streptomycin (0.5 ug/ml). This was then mechanically dissociated twice by gentle trituration through a Pasteur pipet in the same medium, and the supernatants were pooled and filtered through a nylon filter (Nitex, Tetko; 40 um). Total cell number yielded was determined by hemocytometer counting in the presence of trypan blue. Dissociated ventral cells were then plated at a density of approximately 50,000 cells/cm^2 on dishes coated with poly-L-ornithine (10 ug/ml) and laminin (5 ug/ml). Treatments were given on the day of plating, except for delayed addition experiments in which treatments were given on days 2 or 6. Cultures were maintained at 37° C. in 95% air/5% CO2 atmosphere at nearly 100% relative humidity. Culture medium was changed every 3 to 4 days. […]

B1: CNTF: ciliary neurotrophic factor; recombinant rat CNTF in Sections 10, 15, 17, purified rat sciatic nerve CNTF in Section 11; see endpoint conditions (protein, UniProt P20294 1-200, looked up)
Ciliary neurotrophic factor: MAFAEQTPLTLHRRDLCSRSIWLARKIRSDLTALMESYVKHQGLNKNINLDSVDGVPVASTDRWSEMTEAERLQENLQAYRTFQGMLTKLLEDQRVHFTPTEGDFHQAIHTLMLQVSAFAYQLEELMVLLEQKIPENEADGMPATVGDGGLFEKKLWGLKVLQELSQWTVRSIHDLRVISSHQMGISALESHYGAKDKQM
For B1, the “increase in AchE-positive neurons versus untreated controls” value amounted to 2.5 fold.
